In a protein production outcome set (Wang et al. 2014):

Experiment: label from the status in PepcDB records

MNSVGFYGKLAGRGDFVSRGLPNTFVEPWDAWLASGMRASQDELGAAWLDAYLTSPLWRFAIAPGLLGGEAVTGVVMPSIDRVGRYFPLTVACLLPANADLGGLVGGDDGWFEQVESLLLSTLEPEAEVEAFEQAVAQLPAPPCGPRIEQSLISGNLLRSEAVTPAQRLAALAQHACDGASHWWGRGSARISAGLMRYQGLPPAPAFGRFLTGEGEVIPLFPGIPG
protein production: not failed

MNSVVDISWAKLAAFSLILLVPLAINARYRLGIAKDASVSVVRMTLQLVLIGVYLEYLFQLNSLIINLLWLAIMLVVGASSIAGKARLPKKPLMLPLLTGLVCGLFPLLIAITAGLVRPTPLYNAQYMIPLAGMLLGNSLSSNIIALQNLFSAFEERKSEYEAAISLGAAPKYASFPFVQEALRKSLAPTLASMTTMGLVTLPGMMTGQVLGGASPLVAIKYQLVIMLAIFVMMSVSVAITLEMTLSFVQTKEGRVTVKVRPVDGMKRGQ
protein production: failed

MNTESVVEFLGNVPLLQKLPSSSLKKIAQVVVPKRYGKGDYVVREDQTWDGCYFILQGEAQVSGPDEEDNRSEFLLKQYDYFGVGLSGNVHSADIVAMSQLTCLVLPRDHCHLLETNSIWQSDTSLDKCSLVERILQLDPLELNIFRGITLPDAPIFGKVFGGQFVGQALAAASKTVDFLKVVHSLHSYFLLVGDIDIPIIYQVHRIRDGNNFATRRVDAVQKGNIIFILLASFQKEQQGFEHQESTMPSVPDPDTLLSLEELRESRITDPHLPRSYRNKVATRNFVPWPIEIRFCEPSNSTNQTKSPPRLNYWFRAKGRLSDDQALHRCVVAFASDLIFCGVGLNPHRRKGVKSAALSLDHAMWFHRPLRADEWLLYVIVSPTAHETRGFVTGQMFNRKGELVVSLTQEALLREARPPKPSGTSKL
protein production: failed

MNTGTAVITGASSGLGLQCARALLRRDASWHVVLAVRDPARGRAAMEELGEPNRCSVLEVDLASVRSVRSFVETVRTTPLPPIRALVCNAGLQVVSGIAFTDDGVEMTFGVNHLGHFALVTGILDWLARPARIVVVSSGTHDPSKHTGMPDPRYTCAADLAHPPTDQNTPAEGRRRYTTSKLCNVLFTYELDRRLDHGEQGVMVNAFDPGLMPGSGLARDYPPILRLAYRLLSPMLRVLPFVHSTRVSGEHLAALAVDPRFAGVTGQYFAGAKAIRSSAESYDRAKALDLWETSERLLAQVT
protein production: failed

MNTKALIGILMFLLLITWSSKGFAKTAEATVTVNIRNSPSTSSKVLGVFPKGFKAQVLSSTGGWVKISFDGVVGYVKSDYIKLTKDSSTSNAVKSSTNTRQVVSQMPMATVLKDNARVRSNMSTSSKILKTLKKGSKVYVLARERNGWIKVKTLDGTVGYMAYYLLKMSTSHTTKISSRGGYDREAQVAYNGSLADRILGFAKNLLGIRYRYGGSSPSTGFDCSGFVQYVFRNFGISLERTAADMAATDGVRISYNELRPGDLVFFDTDGGRNYINHVGIYLGGGKYIHASSARGCVTISDLTSKYGTSFMMAKRVIR
protein production: failed

MNTKRNRLLYATFTILVIILGLSSRKFAFALPALLNDYLGDALWALMIFTGFGFLFPKIATKKLAFISLIFCYGIEVSQLYHAEWIDSIRATTLGGLVLGYGFLWSDLVAYTIGVGIGFLFELILWKK
protein production: failed

MNTLECLAVAVALAMDAFAVAIATGIRLREVSPRQTFRLAFHFGLFQALMPVAGWTLGLTVRGYIEQWDHWLAFGLLLYIGVRMMREAFEETEENDDRCDPTRGLTLIMLAVATSIDALAVGLSLSVLGIDIVTPAIVIGVVCLLFTATGLHLGRMLSRAESLGRRAALAGGVVLIGIGLRILYEHGVFDTAATLARSVLG
protein production: failed

MNTLEIAKEVFEKEAQAILDLATNLDENFNQAVNLMLNTKGRCIVSGMGKSGHIGAKIAATLASTGTPSFFIHPGEALHGDLGMLTSEDVLIAISNSGETEEILKIIPAIKKREIPLIVMCGKKNSTLVKQGDIFLNIAVEKEACPLQLAPMSSTTATLVMGDALAAALMKVRNFKPDDFALFHPGGSLGRKLLTKVKDLMVSSNLPIVHPDTEFNDLVDVMTSGKLGLCVVLENEKLVGIITDGDLRRALKASDKPRFDFKAKEIMSINPKVVDADAMASEAEGIMLKHKIKEIIVGKEEKVVGIIQLYAIGNV
protein production: not failed
